Laboratory results reported in the supplement of paper PMC9112550, “Optimization of the antimicrobial peptide Bac7 by deep mutational scanning” (BMC Biology, 2022).

tested on: Escherichia coli TOP10; assay: shrunken log2 fold change of peptide-encoding DNA abundance (4.5 h post-induction vs induction); higher = less antimicrobial activity (less host growth inhibition); settings: time post-induction: 4.5 h; library: site-saturation at positions 5, 18, 19, 20
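Further: peptides expressed intracellularly from a pBAD plasmid library in pooled LB shake-flask culture, induced with 0.3% L-arabinose, DNA abundance read by NGS, three biological replicates, DESeq2 with apeglm shrinkage.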

Sequence | shrunken log2 fold change
RRIRWRPPRLPRPRPRPCACPRP | 0.0874
RRIRWRPPRLPRPRPRPCAYPRP | -0.129
RRIRWRPPRLPRPRPRPCCVPRP | -0.134
RRIRWRPPRLPRPRPRPCDFPRP | 0.123
RRIRWRPPRLPRPRPRPCDNPRP | 0.0838
RRIRWRPPRLPRPRPRPCEDPRP | 0.115
RRIRWRPPRLPRPRPRPCEGPRP | 0.00476
RRIRWRPPRLPRPRPRPCENPRP | 0.285
RRIRWRPPRLPRPRPRPCFPPRP | -0.164
RRIRWRPPRLPRPRPRPCFQPRP | -0.222
RRIRWRPPRLPRPRPRPCHHPRP | -0.723
RRIRWRPPRLPRPRPRPCICPRP | 0.16
RRIRWRPPRLPRPRPRPCLEPRP | 0.012
RRIRWRPPRLPRPRPRPCLIPRP | -0.151
RRIRWRPPRLPRPRPRPCLLPRP | -0.188
RRIRWRPPRLPRPRPRPCNQPRP | -0.78
RRIRWRPPRLPRPRPRPCNWPRP | 0.136
RRIRWRPPRLPRPRPRPCQKPRP | -0.00776
RRIRWRPPRLPRPRPRPCQSPRP | -0.098
RRIRWRPPRLPRPRPRPCVLPRP | -0.0369
RRIRWRPPRLPRPRPRPCVVPRP | 0.0549
RRIRWRPPRLPRPRPRPCWSPRP | -0.106
RRIRWRPPRLPRPRPRPDDEPRP | 0.606
RRIRWRPPRLPRPRPRPDDHPRP | 0.0959
RRIRWRPPRLPRPRPRPDDSPRP | -0.183

Sequence | shrunken log2 fold change
RRIRWRPPRLPRPRPRPDFFPRP | 0.204
RRIRWRPPRLPRPRPRPDGQPRP | -0.000921
RRIRWRPPRLPRPRPRPDHFPRP | -0.0288
RRIRWRPPRLPRPRPRPDHPPRP | -0.0785
RRIRWRPPRLPRPRPRPDIGPRP | -0.0157
RRIRWRPPRLPRPRPRPDIIPRP | 0.0562
RRIRWRPPRLPRPRPRPDKQPRP | 0.0432
RRIRWRPPRLPRPRPRPDLSPRP | 0.000407
RRIRWRPPRLPRPRPRPDLTPRP | 0.251
RRIRWRPPRLPRPRPRPDNCPRP | -0.015
RRIRWRPPRLPRPRPRPDNLPRP | -0.188
RRIRWRPPRLPRPRPRPDNPPRP | 0.208
RRIRWRPPRLPRPRPRPDQHPRP | -0.00431
RRIRWRPPRLPRPRPRPDRRPRP | -0.0279
RRIRWRPPRLPRPRPRPDTDPRP | 0.225
RRIRWRPPRLPRPRPRPDWAPRP | -0.107
RRIRWRPPRLPRPRPRPDYDPRP | -0.246
RRIRWRPPRLPRPRPRPDYPPRP | -0.169
RRIRWRPPRLPRPRPRPDYQPRP | -0.101
RRIRWRPPRLPRPRPRPECRPRP | 0.88
RRIRWRPPRLPRPRPRPEDLPRP | -0.0249
RRIRWRPPRLPRPRPRPEDMPRP | 0.282
RRIRWRPPRLPRPRPRPEDTPRP | -0.0372
RRIRWRPPRLPRPRPRPEEFPRP | 0.023
RRIRWRPPRLPRPRPRPEELPRP | -0.00088

Sequence | shrunken log2 fold change
RRIRWRPPRLPRPRPRPEGTPRP | 0.103
RRIRWRPPRLPRPRPRPEHIPRP | -0.14
RRIRWRPPRLPRPRPRPENFPRP | 0.00343
RRIRWRPPRLPRPRPRPENIPRP | -0.148
RRIRWRPPRLPRPRPRPEQAPRP | -0.0201
RRIRWRPPRLPRPRPRPERGPRP | 0.683
RRIRWRPPRLPRPRPRPERMPRP | 0.0689
RRIRWRPPRLPRPRPRPESAPRP | 1.15
RRIRWRPPRLPRPRPRPESWPRP | 1.05
RRIRWRPPRLPRPRPRPETVPRP | -0.0769
RRIRWRPPRLPRPRPRPEWCPRP | 0.386
RRIRWRPPRLPRPRPRPEWYPRP | 0.0654
RRIRWRPPRLPRPRPRPEYLPRP | -0.0854
RRIRWRPPRLPRPRPRPEYRPRP | 0.0624
RRIRWRPPRLPRPRPRPFACPRP | 0.00273
RRIRWRPPRLPRPRPRPFAFPRP | -0.195
RRIRWRPPRLPRPRPRPFCFPRP | 0.449
RRIRWRPPRLPRPRPRPFCMPRP | -0.218
RRIRWRPPRLPRPRPRPFCNPRP | -0.24
RRIRWRPPRLPRPRPRPFDCPRP | -0.0389
RRIRWRPPRLPRPRPRPFDHPRP | 0.124
RRIRWRPPRLPRPRPRPFGIPRP | -0.115
RRIRWRPPRLPRPRPRPFIHPRP | -0.286
RRIRWRPPRLPRPRPRPFIKPRP | -0.686
RRIRWRPPRLPRPRPRPFLAPRP | -0.0712

Sequence | shrunken log2 fold change
RRIRWRPPRLPRPRPRPFLSPRP | -0.0328
RRIRWRPPRLPRPRPRPFLTPRP | 2.56
RRIRWRPPRLPRPRPRPFMAPRP | -0.121
RRIRWRPPRLPRPRPRPFMMPRP | -0.587
RRIRWRPPRLPRPRPRPFMYPRP | -0.0072
RRIRWRPPRLPRPRPRPFNYPRP | -0.533
RRIRWRPPRLPRPRPRPFPFPRP | -0.28
RRIRWRPPRLPRPRPRPFPQPRP | 0.0229
RRIRWRPPRLPRPRPRPFQCPRP | -0.0406
RRIRWRPPRLPRPRPRPFQIPRP | -0.25
RRIRWRPPRLPRPRPRPFRMPRP | -0.122
RRIRWRPPRLPRPRPRPFSNPRP | -0.258
RRIRWRPPRLPRPRPRPFTPPRP | -0.0823
RRIRWRPPRLPRPRPRPFVEPRP | -0.436
RRIRWRPPRLPRPRPRPFWKPRP | -0.136
RRIRWRPPRLPRPRPRPFWMPRP | -0.235
RRIRWRPPRLPRPRPRPFYKPRP | -0.658
RRIRWRPPRLPRPRPRPGCDPRP | 0.818
RRIRWRPPRLPRPRPRPGDEPRP | 0.0372
RRIRWRPPRLPRPRPRPGFLPRP | 0.144
RRIRWRPPRLPRPRPRPGGCPRP | 0.732
RRIRWRPPRLPRPRPRPGILPRP | 0.0649
RRIRWRPPRLPRPRPRPGKPPRP | 0.066
RRIRWRPPRLPRPRPRPGKWPRP | 0.202
RRIRWRPPRLPRPRPRPGLYPRP | -0.036

Sequence | shrunken log2 fold change
RRIRWRPPRLPRPRPRPGMDPRP | 0.317
RRIRWRPPRLPRPRPRPGNYPRP | -0.00177
RRIRWRPPRLPRPRPRPGPCPRP | 0.101
RRIRWRPPRLPRPRPRPGPQPRP | 0.938
RRIRWRPPRLPRPRPRPGPRPRP | 0.514
RRIRWRPPRLPRPRPRPGPWPRP | 0.318
RRIRWRPPRLPRPRPRPGQDPRP | 0.334
RRIRWRPPRLPRPRPRPGQRPRP | 0.153
RRIRWRPPRLPRPRPRPGRLPRP | -0.0636
RRIRWRPPRLPRPRPRPGTLPRP | -0.0473
RRIRWRPPRLPRPRPRPGWDPRP | 0.657
RRIRWRPPRLPRPRPRPGWHPRP | 0.298
RRIRWRPPRLPRPRPRPGWPPRP | 0.644
RRIRWRPPRLPRPRPRPHAAPRP | 0.45
RRIRWRPPRLPRPRPRPHAWPRP | 0.0328
RRIRWRPPRLPRPRPRPHAYPRP | -0.349
RRIRWRPPRLPRPRPRPHCSPRP | -0.00908
RRIRWRPPRLPRPRPRPHEFPRP | -0.0844
RRIRWRPPRLPRPRPRPHEHPRP | 0.0185
RRIRWRPPRLPRPRPRPHEPPRP | 0.0371
RRIRWRPPRLPRPRPRPHHYPRP | -0.952
RRIRWRPPRLPRPRPRPHITPRP | -0.699
RRIRWRPPRLPRPRPRPHKYPRP | -0.652
RRIRWRPPRLPRPRPRPHMHPRP | -0.36
RRIRWRPPRLPRPRPRPHNVPRP | -0.178

Sequence | shrunken log2 fold change
RRIRWRPPRLPRPRPRPHNWPRP | 0.0898
RRIRWRPPRLPRPRPRPHPRPRP | 0.451
RRIRWRPPRLPRPRPRPHPWPRP | 0.0859
RRIRWRPPRLPRPRPRPHRQPRP | -0.165
RRIRWRPPRLPRPRPRPHSHPRP | -3.83e-05
RRIRWRPPRLPRPRPRPHSMPRP | -0.216
RRIRWRPPRLPRPRPRPHSPPRP | -0.09
RRIRWRPPRLPRPRPRPHSQPRP | 0.0984
RRIRWRPPRLPRPRPRPHSWPRP | 0.189
RRIRWRPPRLPRPRPRPHTDPRP | -0.283
RRIRWRPPRLPRPRPRPHTRPRP | -0.0595
RRIRWRPPRLPRPRPRPHVGPRP | 0.0547
RRIRWRPPRLPRPRPRPHWIPRP | -0.434
RRIRWRPPRLPRPRPRPHWPPRP | 0.248
RRIRWRPPRLPRPRPRPHYEPRP | -0.209
RRIRWRPPRLPRPRPRPICMPRP | -0.242
RRIRWRPPRLPRPRPRPICYPRP | -0.214
RRIRWRPPRLPRPRPRPIFPPRP | 0.13
RRIRWRPPRLPRPRPRPIFQPRP | -0.103
RRIRWRPPRLPRPRPRPIGHPRP | 0.0282
RRIRWRPPRLPRPRPRPIGYPRP | -0.0135
RRIRWRPPRLPRPRPRPIHLPRP | -0.0188
RRIRWRPPRLPRPRPRPIIFPRP | -0.303
RRIRWRPPRLPRPRPRPIILPRP | -0.283
RRIRWRPPRLPRPRPRPIKAPRP | 0.00489
